Measured values reported in publication PMC5146998.

Molecular target: CTF2 mutant MUT9 (3xFLAG-tagged) (chicken) (UniProt Q90762)
Assay: co-IP

UniProt Q90762, sequence (Q90762 637-790, change not shown): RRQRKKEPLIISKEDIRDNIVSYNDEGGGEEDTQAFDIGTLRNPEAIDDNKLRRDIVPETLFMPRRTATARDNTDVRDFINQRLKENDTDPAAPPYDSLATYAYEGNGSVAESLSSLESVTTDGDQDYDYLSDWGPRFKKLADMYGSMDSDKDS

β-catenin (endogenous, LMH cells) (natural protein)
percent inhibition of β-catenin co-immunoprecipitation against wild-type CTF2: 87.5%
